Source: the nanobody polyreactivity screen of Harvey et al. (2022)

Assay: yeast display, Sf9 membrane polyspecificity reagent, FACS + sequencing; frameworks hold sequencing errors
Method in brief: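 Synthetic nanobody libraries on Saccharomyces cerevisiae BJ5465 were galactose-induced for 36–48 hours, stained 1 hour at 4 °C with 10% biotinylated, detergent-solubilized Sf9 membrane reagent and enriched on streptavidin microbeads. FACS then separated cells into low and high (top ~1%) gates by anti-HA (expression) and streptavidin (reagent binding) fluorescence. Genes were colony-PCR amplified, MiSeq 2 × 250 sequenced and CDR-length filtered. A clone's polyreactivity label is that of its gate of origin.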

Row | Sequence | polyreactivity (PSR sort gate)
1 | QVQLGESGGGLVQAGGSLRLSCAASGLTFYLYAMGWYRQAPGKERELVAAITTSGGSTYYADSVKGRFTISRDTAKNTVYLQMNSLKPEDTAVYYCATQGALRGYGYWGQGTQVTVSS | high polyreactivity
2 | QVQLGESGGGLVQAGGSLRLSCAASGLTFYLYVMGWYRQAPGTERELVAAISRRGGSTYYADSVKGRFTISRDNAKNTVYLQMNSLNPEDTAVYYCAASVYGTYRGIQYGYWGQGTQVTVSS | high polyreactivity
3 | QVQLGESGGGLVQAGGSLRLSCAASGRIFQHNTMGWYRQAPGKEREFVAAIRRSGGSTYYADSVKGRFTISRDNAKNTVYLQMNSLKPEDTAVYYCAARDYPTGTRRWGGGDSWGQGTQVTLSS | low polyreactivity
4 | QVQLGESGGGLVQAGGSLRLSCAASGRIFRTNAMGWYRQAPGKERELVAAITFSGGGTYYADSVKGRFTISRDNAKNTVYLQMNSLKPEDTAVYYCATDWYYEYYDWGQGTQVTVSS | low polyreactivity
5 | QVQLGESGGGLVQAGGSLRLSCAASGRTLSYYAMGWYRPAPGNDRELVAAISGSAGSTYYADSVKGRFTISRDNAKNTVYLQMNSLKPEDTAVYYCAAYIYSYDEGYYWGQGTQVTVSS | high polyreactivity
6 | QVQLGESGGGLVQAGGSLRLSCAASGSIFGGNAMGWYRQAPGKERELVAAISTSGSTTYYADSVKGRFTISRDNAKNTVYLQMNSLKPEDTAVYYCARRGGVRGYYGGRRSKMDYWGQGTQVTVSS | low polyreactivity
7 | QVQLGESGGGLVQAGGSLRLSCAASGSTRGYTMGWYRQAPGKERELVAVISYSGGRTYYADSVKGRFTISRDNAKNTVYLQMNSLKPEDTAVYYCNAYYYQFRGIRVSGGYWGQGTQVTVSS | high polyreactivity
8 | QVQLGESGGGLVQAGGSLRLSCAPSGSPFPYYVMGWYRPAPGKERELVAAISKSGGSTYYADSVKGRFTISRDNAKNTVYLQMNSLKPEDPAVYYCAAAIRSYRGPRFNYWGQGTQVTVSS | high polyreactivity
9 | QVQLGESGGGLVQAGGSLRLSSAASGRTFGSNAMGWYRQAPGKERELVAASSSTVSTNYADSEKGRFTISRDNAKNTVYLQMNSLKPEDTAVYYCNVTRHYSYVSEYDYWGQGTQVTVSS | low polyreactivity
10 | QVQLGESGGGLVQAGGSLRLTCAASGSIFRYYAMGWYRQAPGKERELVAAIRWSGGRTYYADSVKGRFTISRDNAKNTVYLQMNSLKPEDTAVYDCAADPPHYKPNVRYYYWGQGTQVTVSS | high polyreactivity
11 | QVQLGESGGGLVQAGGSVRLSCAASGRTFDTNAMGWYRQAPGKERELVAAISWSAGRTYYADSVKGRFTISRDNAKNTVYLQMNSLKPEDTAVYYCAARPPFIAYSWQKHGYYWGQGTQVTVSS | low polyreactivity
12 | QVQLGESGGGLVQAGGSVRLSCAASGSTFWVNAMGWYRQAPGKERELVAAISNSGGSTYYADSVKGRFTISRDNAKNTVYLQMNSLKPEDTAVYYCAAAGGVDYDYWGQGTQVTVSS | low polyreactivity
13 | QVQLGESGGGLVQEGGSLRLSCAASGSTLQDYDMGWYRQAPGKERELVAAITWSTGTTYYADSVKGRFTISRDNAKNTVYLQMNSLKPEDPAVYYCAVDSYYRATYTYRYDYWGLGTQVTVSS | low polyreactivity
14 | QVQLGESGGRKVQPGGSLRLSCAASGYTIAWYVMGWSRQAPGKESELVAAISWSGGRTYYADSVKGRFTISRDNAKNTVYLQMNSLNPQDTAVYYCNAYWNPASKYDYWGQGTQVTVSS | high polyreactivity
15 | QVQLGESGRGLVPAGGSLRLSCASSGSIFDRNARGWYRQAPGKERELVAAISSRGGSTYYADSVKGRFTISRDNAKNTVYLQMNSLKPEDTAVYYCNKVRTYGYDYWGQGTQVTVSS | high polyreactivity
16 | QVQLGESGRGLVQAGGSLRLSCAASGRTSWYYAMGWYSQAPGKERELVATSTRSTGSTYYADSVKGRFTISRDNAKNTVYLQMNSLKPEDTAVYYCAKRRKTQPFYIKWYRVDYWGQGTQVTVST | high polyreactivity

Row | Sequence | polyreactivity (PSR sort gate)
17 | QVQLGETGGGLVQAGGSLRLSCAATGSIFRYNAMGWYRQAPGKERELVAAISGRGTSTYYADSVKGRFTISRDNAKNTVYLQMNSLKPEDTAVYYCAAVYFSSFLVEYYYWGQGTQVTVSS | high polyreactivity
18 | QVQLHESGGGLVQAGGGLRLSCAASGSISSTGFMGWYRQAPGKESEPVAAIAPGTTTYYADSVKGRFTISRDNAKNTVYLHMKSLRPEDTAVYYCAVFTDNRVAFLYWGEGTQVTVSS | low polyreactivity
19 | QVQLHESGGGLVQAGGGLRLTCAASGSISSTGFMGWYRQAPCKELEPVAAIAPGPTTYYADSGKGRFTISRDNAKNTVYLQMTSPRPEDTAVNYGAVFTDNRVAFLYWGQGTQVTVSS | low polyreactivity
20 | QVQLHESGGGLVQAGGSLRLSCAASGTISVTYNMGWYRQAPGKEREFVAGNSTGATTNYADSVKGRFTISRDNAKNTVYLQMNSLKPEDTAVYYCAAHIYRQDHFYYWGQGTQVTVSS | low polyreactivity
21 | QVQLHESGGGLVQAGGSLRRSCAASGTISYAGPMGWYRQAPGKEREFVAGIGVGSNTNYADSVKGRYTIIRDNAKNTVYLQMNSLKPEDTAVYYCAVGGYAPLGRPYWGQGTQVTVSS | low polyreactivity
22 | QVQLHESGGGLVQAGRGLRLSCPASGSITSTGFMGSYRQPPGKEREPVAAIAPGTTTYYADSVKGRFTISRDNAKYTEYLQMNSLRPEDTAVYYCAVFTDNRVAFLYWGQGTQVTVSS | low polyreactivity
23 | QVQLHESGGVLVQAGGSLRLSCAASGTISVHYNMCWYRQEPRQEREFVAGNSTGATTNYADSVKGRFTISRDNENNTVYLQMNSLKPEDTAVYYCAAHIYGQDHFYYWGQGTQVTVSS | low polyreactivity
24 | QVQLHESVGGLVQAGVSLRLSCEASGTNFTARFIGWYRQAPGKERELVATITDGCYTNHADSVNGRFTISRDNAKNTVYLTMNSLKPEVAAVYYCAAGDVDNDTLMYWGQGSQVTVSS | low polyreactivity
25 | QVQLIESGGGLVQAGGSLRLSCAASGSTCDRNSMGWYRPAPGKERELVAAIDSDVNTYYADSVKGRFTISRDKAKNTVYLQMNSLTPEDTAVYYCAADYYSWPYDYWGQGTQVTVSS | low polyreactivity
26 | QVQLLEIGGGLVQAGGSLRQSCMASGSILGDRMSWYRQAPGKEHELVATIFDGGITYYADSMKGRFTISRDNAKNTVYLQMNSLRPEDTAVYYCGASFDGYRYHVYCGQGTQVTVSS | low polyreactivity
27 | QVQLLESAGGLVQAGGSLRLSCAASGFIYIPYAMGWYRQAPGKERELVAAISTRGGGTYYADSVKGRFTISRDNAKKPVYLQMNSVKPEDTAVYYCNKQAFYNGRVGYDYWGQGTQVTVSS | low polyreactivity
28 | QVQLLESCGGLVQAGGSLRLSCAASGSILTQYAMGWYRQAPGKERELVAAITGRGGSTYYADSVKGRFTISRDIAMYTVYLEMNSLKPEDTAVFYCAAEERYAYRYDYWGQGTQVTVSS | high polyreactivity
29 | QVQLLESGGGIVKAGGFLRLSCAASGSTFRRYAMGRYREAPGIERELVAAITGRGGSTSYADSVKGRFTISRDNAMNTVYLQMNSLKPEDTSVYYCAADDKYFYPGNGYWGQGTQVTVSS | high polyreactivity
30 | QVQLLESGGGLDQAGGILRLSCASSGRTFNWYAMGWYRQAPGKEREFVAAINWSGGSTYYADSVKGRFTISRDNAKNTVYLQMNSLKPEDTAVYYCNKYPVGYRMYYWGQGTQVTVSS | low polyreactivity
31 | QVQLLESGGGLGQAGGSLRLSCAASGIIFRDSGMGWYRQAPGKEREFVATITYSGGGTYYADSVKGRFTISRDHAKNTVYLQMNSLKPEDTAVYYCAAYPFYYDLAYDYWGQGTQVTVSS | low polyreactivity
32 | QVQLLESGGGLLQAGGSLRLSCAASGITLIGNAMGWYRQAPGKESELVAAISKSGGNTFYAVSVKGRFTISRDNAKNTVYLQMNSLKPEDTAVYYCAADGYYGYYSQYEYLYYYWGQGTQVTVSS | high polyreactivity
